From patent US20140072613A1, “Compositions and Methods for Treating Cutaneous Scarring” (priority 2012, published 2014)

Columns and labels:
Assay in all cases: biochemical
Assay type in all cases: biochemical
[1] = target: 266 human kinases (Homo sapiens, UniProt P06213); settings: IR(h), 100 μM
How it was run: (§1)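 A filter-capture radiometric assay: phosphorylated cationic substrate binds an anionic membrane and is scintillation-counted, with values referenced to full-activity control.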

[2] = target: 266 human kinases (Homo sapiens, UniProt P08581, Y1230D); settings: Met(Y1248D)(h); 100 μM
How it was run: as §1

[3] = target: 266 human kinases (Homo sapiens, UniProt P23443); settings: p70S6K(h); 100 μM
How it was run: as §1

[4] = target: T1, 266 human kinases (Homo sapiens, UniProt P54753); settings: EphB3(h); 100 μM
T1 sequence (P54753 34-998): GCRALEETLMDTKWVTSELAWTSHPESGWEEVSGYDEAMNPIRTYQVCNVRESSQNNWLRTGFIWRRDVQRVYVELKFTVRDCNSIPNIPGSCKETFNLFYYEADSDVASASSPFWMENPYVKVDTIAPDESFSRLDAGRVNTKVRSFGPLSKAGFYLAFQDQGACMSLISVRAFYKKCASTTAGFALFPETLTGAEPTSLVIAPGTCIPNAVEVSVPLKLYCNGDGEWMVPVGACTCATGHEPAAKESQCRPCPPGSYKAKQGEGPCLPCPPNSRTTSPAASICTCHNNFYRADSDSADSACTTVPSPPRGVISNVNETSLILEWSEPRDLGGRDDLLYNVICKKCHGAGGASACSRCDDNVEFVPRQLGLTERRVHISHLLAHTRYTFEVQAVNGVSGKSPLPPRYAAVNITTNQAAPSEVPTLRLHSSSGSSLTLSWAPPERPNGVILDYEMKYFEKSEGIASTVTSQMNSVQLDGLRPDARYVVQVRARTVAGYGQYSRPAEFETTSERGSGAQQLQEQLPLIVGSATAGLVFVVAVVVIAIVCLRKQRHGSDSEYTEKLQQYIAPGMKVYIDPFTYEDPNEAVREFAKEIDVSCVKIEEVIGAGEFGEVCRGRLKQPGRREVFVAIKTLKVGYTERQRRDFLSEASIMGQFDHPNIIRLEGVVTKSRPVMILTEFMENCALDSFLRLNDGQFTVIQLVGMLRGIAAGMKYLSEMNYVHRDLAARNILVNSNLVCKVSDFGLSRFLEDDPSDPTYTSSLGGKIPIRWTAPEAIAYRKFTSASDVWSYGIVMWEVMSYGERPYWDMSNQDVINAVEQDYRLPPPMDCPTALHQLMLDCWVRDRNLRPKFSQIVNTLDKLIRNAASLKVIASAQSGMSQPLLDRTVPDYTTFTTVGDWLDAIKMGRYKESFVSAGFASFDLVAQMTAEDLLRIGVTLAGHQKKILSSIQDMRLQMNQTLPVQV
How it was run: as §1

[5] = target: T2, 266 human kinases (Homo sapiens, UniProt Q13976); settings: PKG1α(h); 100 μM
T2 sequence (Q13976 1-671): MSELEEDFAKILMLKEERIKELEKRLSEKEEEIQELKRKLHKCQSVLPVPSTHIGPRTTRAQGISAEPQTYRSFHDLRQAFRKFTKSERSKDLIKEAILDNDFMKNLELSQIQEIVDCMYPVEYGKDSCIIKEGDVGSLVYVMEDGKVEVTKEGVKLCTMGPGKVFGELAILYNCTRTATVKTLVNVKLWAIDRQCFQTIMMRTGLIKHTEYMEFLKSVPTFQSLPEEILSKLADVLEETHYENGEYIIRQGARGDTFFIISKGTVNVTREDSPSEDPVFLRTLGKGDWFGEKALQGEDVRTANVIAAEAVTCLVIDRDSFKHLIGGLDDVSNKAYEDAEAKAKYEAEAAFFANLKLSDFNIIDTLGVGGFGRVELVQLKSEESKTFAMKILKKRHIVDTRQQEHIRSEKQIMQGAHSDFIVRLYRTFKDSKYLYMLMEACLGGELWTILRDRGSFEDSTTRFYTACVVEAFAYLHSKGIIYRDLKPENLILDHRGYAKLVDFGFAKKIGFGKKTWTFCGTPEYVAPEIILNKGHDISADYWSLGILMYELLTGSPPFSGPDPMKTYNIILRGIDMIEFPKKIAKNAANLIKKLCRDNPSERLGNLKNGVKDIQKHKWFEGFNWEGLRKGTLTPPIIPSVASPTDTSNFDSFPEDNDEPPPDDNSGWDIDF
How it was run: as §1

[6] = target: 266 human kinases (Homo sapiens, UniProt Q8WTQ7); settings: GRK7(h); 100 μM
How it was run: as §1

[7] = target: 266 human kinases (Homo sapiens, UniProt Q9BYP7); settings: WNK3(h); 100 μM
How it was run: as §1

[8] = target: 266 human kinases (Homo sapiens, UniProt Q9BYT3); settings: STK33(h); 100 μM
How it was run: as §1

266 human kinases (Homo sapiens, UniProt Q9BYT3), sequence (Q9BYT3 whole entry): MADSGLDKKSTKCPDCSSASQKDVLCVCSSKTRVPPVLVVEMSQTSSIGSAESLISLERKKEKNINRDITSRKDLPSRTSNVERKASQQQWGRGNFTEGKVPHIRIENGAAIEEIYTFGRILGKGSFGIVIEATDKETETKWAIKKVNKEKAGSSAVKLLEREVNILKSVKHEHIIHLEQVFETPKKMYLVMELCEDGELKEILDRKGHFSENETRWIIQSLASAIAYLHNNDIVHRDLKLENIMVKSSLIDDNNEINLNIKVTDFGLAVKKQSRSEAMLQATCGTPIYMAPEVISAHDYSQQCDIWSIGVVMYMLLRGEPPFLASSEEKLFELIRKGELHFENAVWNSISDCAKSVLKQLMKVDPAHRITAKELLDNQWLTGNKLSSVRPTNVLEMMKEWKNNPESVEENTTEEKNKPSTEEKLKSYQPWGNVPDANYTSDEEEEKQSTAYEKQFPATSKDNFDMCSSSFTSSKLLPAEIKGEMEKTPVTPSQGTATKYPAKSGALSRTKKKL
266 human kinases (Homo sapiens, UniProt P23443), sequence (P23443 whole entry): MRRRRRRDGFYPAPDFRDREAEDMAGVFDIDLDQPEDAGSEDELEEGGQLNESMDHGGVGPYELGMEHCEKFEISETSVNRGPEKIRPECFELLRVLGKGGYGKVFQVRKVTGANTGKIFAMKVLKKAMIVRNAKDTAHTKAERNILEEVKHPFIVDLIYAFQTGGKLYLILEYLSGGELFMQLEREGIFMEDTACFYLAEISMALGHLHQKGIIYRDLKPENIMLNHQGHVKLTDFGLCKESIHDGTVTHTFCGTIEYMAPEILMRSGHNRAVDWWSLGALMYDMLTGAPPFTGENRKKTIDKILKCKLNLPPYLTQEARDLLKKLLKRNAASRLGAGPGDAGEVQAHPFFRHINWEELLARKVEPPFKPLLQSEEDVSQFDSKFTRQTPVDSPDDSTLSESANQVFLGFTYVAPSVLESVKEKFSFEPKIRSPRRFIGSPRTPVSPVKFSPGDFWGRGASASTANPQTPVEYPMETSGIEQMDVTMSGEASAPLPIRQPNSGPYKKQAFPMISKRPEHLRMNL
266 human kinases (Homo sapiens, UniProt Q9BYP7), sequence (Q9BYP7 whole entry): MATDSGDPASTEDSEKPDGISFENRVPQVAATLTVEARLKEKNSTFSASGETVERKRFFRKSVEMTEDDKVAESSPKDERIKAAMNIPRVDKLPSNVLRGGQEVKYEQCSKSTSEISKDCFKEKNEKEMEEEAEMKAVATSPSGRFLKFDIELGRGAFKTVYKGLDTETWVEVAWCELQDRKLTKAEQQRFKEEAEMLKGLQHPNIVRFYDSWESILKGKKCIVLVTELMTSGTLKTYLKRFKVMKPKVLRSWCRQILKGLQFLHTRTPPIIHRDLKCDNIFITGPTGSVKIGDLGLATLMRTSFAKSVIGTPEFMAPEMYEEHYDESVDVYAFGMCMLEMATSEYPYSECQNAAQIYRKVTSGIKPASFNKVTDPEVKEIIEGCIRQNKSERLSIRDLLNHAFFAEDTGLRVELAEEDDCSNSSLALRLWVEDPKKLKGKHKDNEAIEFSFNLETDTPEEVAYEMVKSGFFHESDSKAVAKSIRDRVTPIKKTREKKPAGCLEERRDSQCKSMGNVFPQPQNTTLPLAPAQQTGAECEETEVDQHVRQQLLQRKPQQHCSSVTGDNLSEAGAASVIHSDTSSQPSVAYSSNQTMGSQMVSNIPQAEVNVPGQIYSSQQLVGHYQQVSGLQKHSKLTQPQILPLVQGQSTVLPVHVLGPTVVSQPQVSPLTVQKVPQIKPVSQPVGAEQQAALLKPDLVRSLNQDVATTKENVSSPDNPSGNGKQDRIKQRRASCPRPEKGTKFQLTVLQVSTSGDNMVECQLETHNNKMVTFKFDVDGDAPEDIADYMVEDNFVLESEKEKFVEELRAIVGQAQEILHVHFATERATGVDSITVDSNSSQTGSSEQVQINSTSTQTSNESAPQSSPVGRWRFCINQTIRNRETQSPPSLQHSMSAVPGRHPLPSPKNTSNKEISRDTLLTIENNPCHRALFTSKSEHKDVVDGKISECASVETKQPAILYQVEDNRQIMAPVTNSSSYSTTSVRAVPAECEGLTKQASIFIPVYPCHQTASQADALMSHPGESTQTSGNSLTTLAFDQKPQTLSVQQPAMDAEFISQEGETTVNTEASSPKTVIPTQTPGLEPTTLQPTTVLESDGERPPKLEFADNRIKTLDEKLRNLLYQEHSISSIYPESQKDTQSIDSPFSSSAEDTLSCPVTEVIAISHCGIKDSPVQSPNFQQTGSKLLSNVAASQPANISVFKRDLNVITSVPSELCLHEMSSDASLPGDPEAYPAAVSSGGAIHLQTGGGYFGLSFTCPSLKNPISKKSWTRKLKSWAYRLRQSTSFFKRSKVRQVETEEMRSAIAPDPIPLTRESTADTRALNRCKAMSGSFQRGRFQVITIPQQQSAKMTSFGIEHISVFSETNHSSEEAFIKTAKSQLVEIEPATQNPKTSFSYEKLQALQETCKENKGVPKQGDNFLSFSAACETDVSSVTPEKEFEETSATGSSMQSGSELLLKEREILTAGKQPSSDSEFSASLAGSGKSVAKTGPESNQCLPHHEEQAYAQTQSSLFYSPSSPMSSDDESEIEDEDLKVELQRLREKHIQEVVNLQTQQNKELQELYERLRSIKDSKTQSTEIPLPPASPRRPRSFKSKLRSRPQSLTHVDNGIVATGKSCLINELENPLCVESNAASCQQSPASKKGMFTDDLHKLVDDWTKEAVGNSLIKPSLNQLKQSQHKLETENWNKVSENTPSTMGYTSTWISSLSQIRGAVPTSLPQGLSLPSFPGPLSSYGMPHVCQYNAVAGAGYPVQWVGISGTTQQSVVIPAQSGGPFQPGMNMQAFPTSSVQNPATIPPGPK
266 human kinases (Homo sapiens, UniProt Q8WTQ7), sequence (Q8WTQ7 whole entry): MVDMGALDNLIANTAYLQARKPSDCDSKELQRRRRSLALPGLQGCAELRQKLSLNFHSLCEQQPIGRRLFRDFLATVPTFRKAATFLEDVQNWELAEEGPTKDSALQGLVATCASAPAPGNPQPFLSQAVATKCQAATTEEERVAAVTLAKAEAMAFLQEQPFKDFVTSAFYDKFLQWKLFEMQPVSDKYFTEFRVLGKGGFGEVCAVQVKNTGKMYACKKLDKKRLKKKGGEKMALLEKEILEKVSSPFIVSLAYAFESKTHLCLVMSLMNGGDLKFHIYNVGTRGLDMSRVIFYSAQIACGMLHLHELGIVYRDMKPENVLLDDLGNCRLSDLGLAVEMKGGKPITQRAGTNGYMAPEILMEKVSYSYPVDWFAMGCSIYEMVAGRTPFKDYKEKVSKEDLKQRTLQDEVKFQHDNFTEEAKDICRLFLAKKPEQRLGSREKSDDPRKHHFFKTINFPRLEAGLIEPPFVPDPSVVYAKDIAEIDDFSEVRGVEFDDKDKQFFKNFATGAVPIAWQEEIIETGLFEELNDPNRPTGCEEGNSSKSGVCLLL

Sequence	% activity ([1]; activated) [%]	% activity [1] [%]	% activity [2] [%]	% activity [3] [%]	% activity [4] [%]	% activity [5] [%]	% activity [6] [%]	% activity [7] [%]	% activity [8] [%]
HRRIKAWLKKIKALARQLGVAA (mammal) [MMI-0500]	90	95	218	3	79	25	93	9	16
YARAAARQARAKALNRQLGVA (mammal) [MMI-0200]	–	90	118	84	128	70	124	97	98
